Source: patent US20250263500A1

Biological target: CD24 (human) (UniProt P25063)
Experiment: cell-based or functional assay

Chain of CD24 (human) (P25063 27-59): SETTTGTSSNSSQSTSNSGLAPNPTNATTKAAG

Phagocytosis rate % (A549 tumor cells by human PBMC-derived M2 macrophages, antibody 5 µg/ml): 2.7%
Phagocytosis rate (%) (MCF-7 tumor cells by human PBMC-derived M2 macrophages, antibody 5 µg/ml): 1.3%
Substance: negative control antibody (mouse IgG)
